T1: Lys(Dnp)-ATNATIKPRIVGG-Lys(Abz)
T1 chain: KATNATIKPRIVGGK

T2: Lys(Dnp)-ATNATIIPRIVGG-Lys(Abz)
T2 chain: KATNATIIPRIVGGK

T3: Lys(Dnp)-ATNATLAPRIVGG-Lys(Abz)
T3 chain: KATNATLAPRIVGGK

T4: Lys(Dnp)-ATNATHDPRIVGG-Lys(Abz)
T4 chain: KATNATHDPRIVGGK

T5: Lys(Dnp)-ATNATNNPRIVGG-Lys(Abz)
T5 chain: KATNATNNPRIVGGK

T6: Lys(Dnp)-ATNATRKPRIVGG-Lys(Abz)
T6 chain: KATNATRKPRIVGGK

T7: Lys(Dnp)-ATNATEVPRIVGG-Lys(Abz)
T7 chain: KATNATEVPRIVGGK

B1: Human plasma purified Factor Xa (protein)
chain 1: ANSFLEEMKKGHLERECMEETCSYEEAREVFEDSDKTNEFWNKYKDGDQCETSPCQNQGKCKDGLGEYTCTCLEGFEGKNCELFTRKLCSLDNGDCDQFCHEEQNSVVCSCARGYTLADNGKACIPTGPYPCGKQTLER
chain 2: IVGGQECKDGECPWQALLINEENEGFCGGTILSEFYILTAAHCLYQAKRFKVRVGDRNTEQEEGGEAVHEVEVVIKHNRFTKETYDFDIAVLRLKTPITFRMNVAPACLPERDWAESTLMTQKTGIVSGFGRTHEKGRQSTRLKMLEVPYVDRNSCKLSSSFIITQNMFCAGYDTKQEDACQGDSGGPHVTRFKDTYFVTGIVSWGEGCARKGKYGIYTKVTAFLKWIDRSMKTRGLPKAKSHAPEVITSSPLK
B2: Human plasma purified Factor Xa (Molecular Innovations, Inc) (protein)
chain 1: ANSFLEEMKKGHLERECMEETCSYEEAREVFEDSDKTNEFWNKYKDGDQCETSPCQNQGKCKDGLGEYTCTCLEGFEGKNCELFTRKLCSLDNGDCDQFCHEEQNSVVCSCARGYTLADNGKACIPTGPYPCGKQTLER
chain 2: IVGGQECKDGECPWQALLINEENEGFCGGTILSEFYILTAAHCLYQAKRFKVRVGDRNTEQEEGGEAVHEVEVVIKHNRFTKETYDFDIAVLRLKTPITFRMNVAPACLPERDWAESTLMTQKTGIVSGFGRTHEKGRQSTRLKMLEVPYVDRNSCKLSSSFIITQNMFCAGYDTKQEDACQGDSGGPHVTRFKDTYFVTGIVSWGEGCARKGKYGIYTKVTAFLKWIDRSMKTRGLPKAKSHAPEVITSSPLK

Key:
[1] = molecular target: T1, Lys(Dnp)-ATNATIKPRIVGG-Lys(Abz)
[2] = molecular target: T2, Lys(Dnp)-ATNATIIPRIVGG-Lys(Abz)
[3] = molecular target: T3, Lys(Dnp)-ATNATLAPRIVGG-Lys(Abz)
[4] = molecular target: T4, Lys(Dnp)-ATNATHDPRIVGG-Lys(Abz)
[5] = molecular target: T5, Lys(Dnp)-ATNATNNPRIVGG-Lys(Abz)
[6] = molecular target: T6, Lys(Dnp)-ATNATRKPRIVGG-Lys(Abz)
[7] = molecular target: T7, Lys(Dnp)-ATNATEVPRIVGG-Lys(Abz)

Protein	FXa kcat/KM [1] [M⁻¹ s⁻¹]	FXa kcat/KM [2] [M⁻¹ s⁻¹]	FXa kcat/KM [3] [M⁻¹ s⁻¹]	FXa kcat/KM [4] [M⁻¹ s⁻¹]	FXa kcat/KM [5] [M⁻¹ s⁻¹]	FXa kcat/KM [6] [M⁻¹ s⁻¹]	FXa kcat/KM [7] [M⁻¹ s⁻¹]
B1	120	490	230	–	–	–	–
B2	–	–	–	86	15	640	24
